# Test results published in patent US20020132350.
# Molecular target: MuA transposase (Bacteriophage Mu) (UniProt P07636)
# Assay: cell_activity
# Sequence of MuA transposase (Bacteriophage Mu) (P07636 whole entry): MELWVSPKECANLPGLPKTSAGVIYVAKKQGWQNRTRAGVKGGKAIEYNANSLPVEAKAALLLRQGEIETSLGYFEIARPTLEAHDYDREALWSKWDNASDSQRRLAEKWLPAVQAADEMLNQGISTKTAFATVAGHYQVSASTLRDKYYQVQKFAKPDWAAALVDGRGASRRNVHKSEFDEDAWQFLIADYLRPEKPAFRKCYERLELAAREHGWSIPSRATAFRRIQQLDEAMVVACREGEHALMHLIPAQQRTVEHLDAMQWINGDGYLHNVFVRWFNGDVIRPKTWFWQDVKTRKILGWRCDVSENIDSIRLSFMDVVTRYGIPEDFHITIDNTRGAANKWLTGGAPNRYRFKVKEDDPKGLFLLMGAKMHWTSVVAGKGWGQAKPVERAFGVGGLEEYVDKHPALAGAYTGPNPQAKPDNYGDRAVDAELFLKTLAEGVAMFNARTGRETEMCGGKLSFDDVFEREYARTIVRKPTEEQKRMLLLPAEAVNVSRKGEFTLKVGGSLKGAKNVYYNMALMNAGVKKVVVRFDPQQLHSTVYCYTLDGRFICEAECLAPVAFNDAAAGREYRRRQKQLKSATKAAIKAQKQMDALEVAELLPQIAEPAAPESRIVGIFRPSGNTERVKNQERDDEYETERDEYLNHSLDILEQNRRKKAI
substance,measurement,setting,value
PC-4 SpeI/BglII fragment with attached lacZ-100 ssDNA navigator,activity,"same conditions, 26 blue, 5 white",31 colonies
PC-4 fragment with lacZ-100 navigator via biotin/streptavidin,activity,"biotin/streptavidin bridge, induced MuA, uninduced 0",58 colonies
"PC-4 SpeI/BglII fragment (precleaved mini-Mu, inverted R1-R2-R3 ends flanking CAM)",activity,"induced MuA (0.5 mM IPTG), replicate 204, uninduced 1 and 3",240 colonies
same,activity,"preformed CDC (25 mM HEPES pH 7.6, 130 mM NaCl, 10 mM MgCl2, 15% DMSO, 15% glycerol, 30 C 1 h) electroporated into E. coli, 16 blue, 4 white, fragment without …",20 colonies
